Measurements reported in patent US8071348B2, “Protein tyrosine phosphatase substrate-trapping double mutant and uses thereof” (Albert Einstein College of Medicine of Yeshiva University, priority 2002, dated 2011).
[ ]: non-standard residue; d: D form. F2Pmp = N[C@@H](Cc1ccc(C(F)(F)P(=O)(O)O)cc1)C(=O)O

Assays:
[1] = biological target: T1, EGFR 988-998 peptide DADEpYLIPQQG
T1 chain: DADEXLIPQQG

[2] = biological target: T2, Ac-Asp-Ala-Asp-Glu-F2Pmp-Leu-NH2; assay: ITC, 25 C, pH 7.0
T2 construct: Synthetic hexapeptide printed in three-letter code; also called F2Pmp-containing peptide; non-hydrolyzable substrate analog
T2 peptide: Ac-DADE[F2Pmp]L-NH2
Procedure: All isothermal titration calorimetry experiments were performed using an MCS Isothermal Titration Calorimetry System from Microcal Inc. (Northampton, Mass.). Experiments at pH 7.0 were conducted at 25° C., in 50 mM 3,3-dimethylglutarate buffer containing 1 mM DTT. The ionic strength of the buffer was adjusted to 0.15 M by addition of NaCl. Protein concentration in the calorimeter cell was 27-85 µM, while the ligand concentration in the syringe was 0.37-1 mM.
The PTP1B samples used in the isothermal titration calorimetry experiments were dialyzed completely against buffer. High-concentration stock solutions were prepared for ligands with distilled water, and adjusted to pH 7.0. […] Protein dilution during titration was determined by titration of buffer into the protein solution. […] The heat of ligand dilution was corrected by subtracting the average heat of injection after saturation.
A typical titration curve and binding isotherm for the binding of D181A/Q262A to Ac-Asp-Ala-Asp-Glu-F_2Pmp-Leu-NH_2 is shown in FIG. 3. From curve-fitting of the binding isotherms, the stoichiometry for the binding of the peptide to D181A/Q262A was determined to be 1:1.

[3] = Kinetic constants for PTP1B-catalyzed hydrolysis of pNPP; type: biochemical; details: pNPP as substrate
From the text: The catalytic domain of PTP1B (residues 1 to 321) was used for in vitro study. PTP1B mutants, C215S, D181A, and Q262A, were described previously (9, 25, 26). PTP1B double mutants, D181A/C215S and C215S/Q262A, were generated by PCR reactions, according to the standard procedure of the Quick-Change™ site-directed mutagenesis kit (Stratagene), using pT7-7/PTP1B/C215S as a template. PTP1B double mutants, D181A/C215E and D181A/Q262A, were generated by similar PCR procedures, using pT7-7/PTP1B/D181A as a template. The recombinant wild-type and mutant PTP1Bs were expressed in E. coli, and purified to homogeneity as described (25, 27). Protein concentration was determined from absorbance measurement at 280 nm, using an absorbance coefficient of 1.24 for 1 mg/ml PTP1B.
PTP activity was assayed at 25° C. and pH 7.0, in a reaction mixture (0.2 ml) containing pNPP concentrations ranging from 0.2 to 5 Km. The following buffered solution was used for activity measurements: pH 7.0, 50 mM 3,3-dimethylglutarate, 1 mM EDTA; the ionic strength was 0.15 M, as adjusted by addition of NaCl. Initial rate measurements for the enzyme-catalyzed hydrolysis of pNPP were conducted as previously described (26). Michaelis-Menten kinetic parameters were determined from a direct fit of the data to the Michaelis-Menten equation, using the nonlinear regression program, KINETASYST (Intellikinetics, State College, Pa.).

[4] = biological target: T3, Ac-Asp-Ala-Asp-Glu-F2Pmp-Leu-NH2 (Homo sapiens, UniProt P18031, D181A/Q262A); assay: Isothermal titration calorimetry, binding of PTP1B and mutants to F2Pmp peptide; details: ITC, pH 7.0, ionic strength 0.15 M, 25° C.; read-out: dissociation constant, Kd
T3 construct: The catalytic domain of PTP1B (residues 1 to 321) was used for in vitro study; made in house; host or cells: E. coli (pT7-7 plasmids)
T3 sequence (P18031 1-321 D181A/Q262A): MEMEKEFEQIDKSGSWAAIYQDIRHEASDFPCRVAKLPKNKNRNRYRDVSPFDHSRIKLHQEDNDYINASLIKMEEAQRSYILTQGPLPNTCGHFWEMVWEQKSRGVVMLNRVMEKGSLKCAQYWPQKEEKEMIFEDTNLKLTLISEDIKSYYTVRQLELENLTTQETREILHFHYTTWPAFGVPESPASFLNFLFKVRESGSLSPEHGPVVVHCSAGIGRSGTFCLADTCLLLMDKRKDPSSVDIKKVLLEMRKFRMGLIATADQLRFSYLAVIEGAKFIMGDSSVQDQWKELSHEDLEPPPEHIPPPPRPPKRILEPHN

[5] = biological target: Ac-Asp-Ala-Asp-Glu-F2Pmp-Leu-NH2; assay: as above; details: ITC, 25° C. and pH 7.0; data from this study

B1: PTP1B/D181A/Q262A, catalytic domain (residues 1 to 321) (enzyme, human, UniProt P18031 1-321, looked up)
chain: T3 sequence (P18031 1-321 D181A/Q262A)
notes: range 1-321; Used in vitro (ITC, kinetics); also called PTP1B substrate-trapping double mutant
Km (hydrolysis of the EGFR 988-998 peptide, 25 C, pH 7.0) [1]: 51 µM
TΔS [2]: 6.6 kcal/mol
ΔG [2]: -11.1 kcal/mol
ΔH [2]: -4.5 kcal/mol
fold decrease in Km relative to D181A [3]: 33 fold
fold decrease in kcat relative to D181A [3]: 11 fold
Km ([3]; 25° C. and pH 7.0): 2400 ± 500 nM
kcat ([3]; 25° C. and pH 7.0): (2.8 ± 0.1) × 10^−3 s^−1
Kd [4]: 6.8 nM
Kd [5]: 6.8 ± 2.3 nM
